What was measured:
[1] = target: T1, rat Dkk-1 (SEQ ID NO: 31) (rat, UniProt O54908 32-272 (mouse entry), limits assumed); test: KinExA solution equilibrium, 37 C, His-tagged DKK-1
T1 construct: also called His-tagged DKK-1
T1 chain: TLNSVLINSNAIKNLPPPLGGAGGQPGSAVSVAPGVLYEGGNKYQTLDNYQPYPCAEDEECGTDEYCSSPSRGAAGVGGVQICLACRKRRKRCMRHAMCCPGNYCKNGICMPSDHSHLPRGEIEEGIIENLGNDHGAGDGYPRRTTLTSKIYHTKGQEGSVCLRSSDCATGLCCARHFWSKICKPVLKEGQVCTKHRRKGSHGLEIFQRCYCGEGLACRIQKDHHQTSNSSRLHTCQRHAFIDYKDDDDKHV
Method: (§1) To establish a binding equilibrium, a constant concentration of antibody is mixed with varying concentrations of His-tagged DKK-1 (SEQ ID NO:29, SEQ ID NO:30, SEQ ID NO:31, SEQ ID NO:32, or SEQ ID NO:33) (1 nM-1 pM range) in PBS (pH 7.4)+1 mg/mL bovine serum albumin (“BSA”) or buffer alone and incubated for several days at 37° C. Two sets of binding reactions are set up, one set at low concentration of antibody (3 pM) and one set at high concentration of antibody (30 or 50 pM).
(§2) After establishing equilibrium, a KinExA 3000 instrument (Sapidyne Inst. Inc.) is used to probe for the fraction of ‘free’ (unbound) antibody. Briefly, His-tagged DKK-1 is covalently coupled to NHS-activated Sepharose 4 Fast Flow beads (GE Healthcare) which are packed by the instrument to create a small column. The pre-equilibrated mixtures of antibody+His-tagged DKK-1 are passed over the beads to capture only free antibody. The amount of free antibody captured is proportional to the free concentration in the equilibrated samples, and is detected by injection of a fluorescently labeled secondary antibody. Data sets from low and high concentrations of antibody are fit globally using n-curve analysis in the KinExA software. This fitting returns a Kd value as well as the 95% confidence interval.

[2] = target: T2, rabbit DKK-1 (SEQ ID NO: 32) (rabbit, UniProt O94907 32-265 (human entry), limits assumed); test: as above
T2 construct: also called His-tagged DKK-1
T2 chain: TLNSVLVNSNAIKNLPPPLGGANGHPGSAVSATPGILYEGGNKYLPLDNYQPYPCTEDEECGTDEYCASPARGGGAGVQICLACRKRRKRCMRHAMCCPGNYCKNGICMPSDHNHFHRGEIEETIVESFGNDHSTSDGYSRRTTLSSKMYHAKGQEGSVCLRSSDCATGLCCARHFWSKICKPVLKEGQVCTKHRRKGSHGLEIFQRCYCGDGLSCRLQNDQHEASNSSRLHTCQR
Method: as §1, §2

[3] = target: T3, cynomolgus DKK-1 (SEQ ID NO: 30) (cynomolgus, UniProt O94907 32-265 (human entry), limits assumed); test: as above
T3 construct: also called His-tagged DKK-1
T3 chain: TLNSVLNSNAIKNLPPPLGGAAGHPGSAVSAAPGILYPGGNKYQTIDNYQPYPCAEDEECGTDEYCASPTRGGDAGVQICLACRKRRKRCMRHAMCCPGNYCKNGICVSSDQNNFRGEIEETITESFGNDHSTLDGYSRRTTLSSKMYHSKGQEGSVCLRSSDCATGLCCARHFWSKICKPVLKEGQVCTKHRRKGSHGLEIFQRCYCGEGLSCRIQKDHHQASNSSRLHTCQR
Method: as §1, §2

[4] = target: T4, human DKK-1 (SEQ ID NO: 29) (human, UniProt O94907 32-266); test: as above
T4 construct: A tag is not mentioned for the C2C12 assay; also called His-tagged DKK-1; Dickkopf-1
T4 sequence: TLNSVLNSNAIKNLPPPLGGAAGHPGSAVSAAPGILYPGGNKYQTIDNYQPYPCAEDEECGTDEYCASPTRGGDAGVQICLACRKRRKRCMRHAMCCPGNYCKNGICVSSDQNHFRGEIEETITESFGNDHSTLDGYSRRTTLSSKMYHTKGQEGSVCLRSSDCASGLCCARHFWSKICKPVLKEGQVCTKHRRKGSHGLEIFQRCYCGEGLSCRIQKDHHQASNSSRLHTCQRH
Method: as §1, §2

[5] = target: T5, mouse DKK-1 (SEQ ID NO: 33) (mouse, UniProt O54908 32-272); test: as above
T5 construct: also called His-tagged DKK-1; Murine
T5 sequence: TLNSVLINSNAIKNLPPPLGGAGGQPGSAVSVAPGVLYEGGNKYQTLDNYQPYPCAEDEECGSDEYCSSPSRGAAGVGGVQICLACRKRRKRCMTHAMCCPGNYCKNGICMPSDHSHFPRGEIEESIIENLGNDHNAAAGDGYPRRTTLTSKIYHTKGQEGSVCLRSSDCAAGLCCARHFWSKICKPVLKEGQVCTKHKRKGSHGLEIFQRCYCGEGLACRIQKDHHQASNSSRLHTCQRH
Method: as §1, §2

[6] = target: T1, rat Dkk-1 (SEQ ID NO: 31); test: cell-based or functional assay
[7] = target: T2, rabbit DKK-1 (SEQ ID NO: 32); test: cell-based or functional assay
[8] = target: T3, cynomolgus DKK-1 (SEQ ID NO: 30); test: cell-based or functional assay
[9] = target: T4, human DKK-1 (SEQ ID NO: 29); test: cell-based or functional assay

B1: Antibody II (antibody, human IgG4 S228P, kappa, F234A L235A, V domains shown)
VH: EVQLVESGGGLVQPGGSLRLSCAASGFTFSSYTMSWVRQAPGKGLEWVATISGGGFGTYYPDSVKGRFTISRDNAKNSLYLQMNSLRAEDTAVYYCARPGYNNYYFDIWGQGTTVTVSS
VL: EIVLTQSPATLSLSPGERATLSCHASDSISNSLHWYQQKPGQAPRLLIYYARQSIQGIPARFSGSGSGTDFTLTISSLEPEDFAVYYCQQSESWPLHFGGGTKVEIKR
notes: also called human engineered DKK-1 antibody
Q: How did the Kd [1] turn out when B1 was run?
A: Its Kd is 8.4 pM.

Q: And the Kd [2]?
A: Its Kd is 17 pM.

Q: What about the Kd [3] of the same binder?
A: The Kd was 14 pM.

Q: What about the Kd [4] of the same binder?
A: Its Kd is 3.3 pM.

Q: What about the Kd [5] of the same binder?
A: The Kd was 7 pM.

Q: What about the “EC50, block of DKK-1-mediated inhibition of alkaline phosphatase in C2C12 cells” value [6] of the same binder?
A: Its value is 2900 pM.

Q: What about the “EC50, block of DKK-1-mediated inhibition of alkaline phosphatase in C2C12 cells” value [7] of the same binder?
A: The value was 6000 pM.

Q: And the “EC50, block of DKK-1-mediated inhibition of alkaline phosphatase in C2C12 cells” value [8]?
A: The value was 6400 pM.

Q: What about the “EC50, block of DKK-1-mediated inhibition of alkaline phosphatase in C2C12 cells” value [9] of the same binder?
A: Its value is 9800 pM.

Reference: US20100260754A1 (Eli Lilly, published 2010)
